Patent US5998583, “BH3 interacting domain death agonist” (Washington University, dated 1999)

B1: BIDmIII-1 (M97A,D98A) (other)
chain: MDSEVSNGSGLGAKHITDLLVFGFLQSSGCTRQELEVLGRELPVQAYWEADLEDELQTDGSQASRSFNQGRIEPDSESQEEIIHNIARHLAQIGDEAAHNIQPTLVRQLAAQFMNGSLSEEDKRNCLAKALDEVKTAFPRDMENDKAMLIMTMLLAKKVASHAPSLLRDVFHTTVNFINQNLFSYVRNLVRNEMD
B2: BIDmIII-3 (G94A) (other)
chain: MDSEVSNGSGLGAKHITDLLVFGFLQSSGCTRQELEVLGRELPVQAYWEADLEDELQTDGSQASRSFNQGRIEPDSESQEEIIHNIARHLAQIADEMDHNIQPTLVRQLAAQFMNGSLSEEDKRNCLAKALDEVKTAFPRDMENDKAMLIMTMLLAKKVASHAPSLLRDVFHTTVNFINQNLFSYVRNLVRNEMD

Columns and labels:
[1] = target: human BCL-2 (in FL5.12-Bcl-2 cells) (human, UniProt P10415); test: In Vitro and In Vivo BCL-2 Binding (summary: GST pull-down and anti-BID immunoprecipitation with anti-BCL-2 blot)
[2] = target: BAX (in FL5.12-Bcl-2 cells) (murine, UniProt Q07813); test: In Vitro and In Vivo BAX Binding (summary: GST pull-down and anti-BID immunoprecipitation with anti-BAX blot)

Row | Binder | binding result [1] | binding result [2]
1 | B1 | no binding | –
2 | B2 | – | no binding
